Laboratory results taken from US6989260B2, “Human poly(ADP-ribose) polymerase 2 materials and methods” (ICOS Corporation, priority 1999, dated 2006).

B1: FB-hPARP2: full-length hPARP2 protein fused to a poly-His tag (SEQ ID NO:59) (protein)
chain: MRGSHHHHHHDYDIPTTENLYFQGAMDPEFKGLRRPMAARRRRSTGGGRARALNESKRVNNGNTAPEDSSPAKKTRRCQRQESKKMPVAGGKANKDRTEDKQDGMPGRSWASKRVSESVKALLLKGKAPVDPECTAKVGKAHVYCEGNDVYDVMLNQTNLQFNNNKYYLIQLLEDDAQRNFSVWMRWGRVGKMGQHSLVACSGNLNKAKEIFQKKFLDKTKNNWEDREKFEKVPGKYDMLQMDYATNTQDEEETKKEESLKSPLKPESQLDLRVQELIKLICNVQAMEEMMMEMKYNTKKAPLGKLTVAQIKAGYQSLKKIEDCIRAGQHGRALMEACNEFYTRIPHDFGLRTPPLIRTQKELSEKIQLLEALGDIEIAIKLVKTELQSPEHPLDQHYRNLHCALRPLDHESYEFKVISQYLQSTHAPTHSDYTMTLLDLFEVEKDGEKEAFREDLHNRMLLWHGSRMSNWVGILSHGLRIAPPEAPITGYMFGKGIYFADMSSKSANYCFASRLKNTGLLLLSEVALGQCNELLEANPKAEGLLQGKHSTKGLGKMAPSSAHFVTLNGSTVPLGPASDTGILNPDGYTLNYNEYIVYNPNQVRMRYLLKVQFNFLQLW
modifications: poly-His tag

Test system: hPARP2 poly(ADP-ribose) polymerase activity
Test: Poly(ADP-ribose) polymerase activity assay (32P-NAD+ incorporation, SDS-PAGE, autoradiography)
Type: biochemical, human
Settings: 250 ng PARP1A/PARP2B or 25 ng FB-hPARP2, 10 min at room temperature, 2.5 μM unlabeled NAD+, E. coli Strain B DNA, gamma-[32P]-NAD+
Description: The PARP activity of hPARP2, or some substructure thereof, can be measured by the ability of that component to incorporate the ADP-ribose unit from NAD into polymers of ADP-ribose coupled to a protein substrate.
A fusion protein, designated PARP1A/PARP2B, containing aa 1–662 of hPARP1 (SEQ ID NO:25) fused upstream of aa 230–583 of hPARP2 (SEQ ID NO:2) was used in the measurement of hPARP2 poly(ADP-ribose) polymerase activity. PARP1A/PARP2B contained the DNA binding domain (aa 1–373 of SEQ ID NO:25) and automodification domain (aa 373–525 of SEQ ID NO:25) of hPARP1 and the putative catalytic domain of hPARP2 (aa […] of SEQ ID NO:2).
In addition to PARP1A/PARP2B, a full-length hPARP2 protein fused to a poly-His tag (FB-hPARP2) was constructed for use in the measurement of hPARP2 poly(ADP-ribose) polymerase activity. The construction of FB-hPARP2 was carried out as follows.
For poly(ADP-ribose) polymerase activity assays, reagents were obtained from Sigma, unless otherwise indicated. PARP1A/PARP2B (250 ng) or FB-hPARP2 (25 ng) protein was incubated for 10 min at room temperature in assay buffer (total volume of 20 μL) containing 100 mM Tris, pH 8.0, 1 mM MgCl2, 10% glycerol, 1.5 mM dithiothreitol (Boehringer Mannheim/Roche Molecular Biochemicals, Indianapolis, Ind.), 2.5 μM unlabeled NAD^+, 16.7 μg/mL E. coli Strain B DNA, and 0.33 μCi gamma-[^32P]-NAD^+ (NEN, Boston, Mass.). […]

Row | Molecule | intrinsic poly(ADP-ribose) polymerase activity (ability to produce poly(ADP-ribose) polymers)
1 | PARP1A/PARP2B: fusion protein containing aa 1–662 of hPARP1 fused upstream of aa 230–583 of hPARP2; His tag leader, Strep-tag (SEQ ID NO:47) | possessed intrinsic poly(ADP-ribose) polymerase activity
2 | B1 | possessed intrinsic poly(ADP-ribose) polymerase activity
